Measurements taken from US20120114652A1 (AbbVie / Abbott, published 2012).

Tests used:
[1] = target: T1, latent human PAI-1 (human, UniProt P05121 24-402); test: IgG competition ELISA (DELFIA), one-site binding analysis
T1 construct: also called latent PAI-1

[2] = target: T2, dog PAI-1 (bacterially-derived active dog PAI-1) (dog); test: IgG competition ELISA (DELFIA) against biotinylated human PAI-1, one-site binding analysis; column Dog
T2 construct: also called canine PAI-1

[3] = target: T3, rat PAI-1 (rat, UniProt P20961 24-402); test: IgG competition ELISA (DELFIA) against biotinylated human PAI-1, one-site binding analysis; column Rat
T3 construct: bought (US Biological)
T3 sequence: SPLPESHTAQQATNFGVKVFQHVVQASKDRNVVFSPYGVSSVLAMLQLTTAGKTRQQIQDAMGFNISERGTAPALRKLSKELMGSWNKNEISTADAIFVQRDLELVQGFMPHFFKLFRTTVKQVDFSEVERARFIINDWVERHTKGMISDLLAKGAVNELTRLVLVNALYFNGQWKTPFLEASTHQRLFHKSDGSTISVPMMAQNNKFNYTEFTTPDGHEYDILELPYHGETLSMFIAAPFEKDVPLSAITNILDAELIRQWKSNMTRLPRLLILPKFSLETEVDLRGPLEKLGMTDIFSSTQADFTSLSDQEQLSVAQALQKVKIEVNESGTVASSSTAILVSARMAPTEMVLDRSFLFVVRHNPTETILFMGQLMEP

[4] = target: T4, glycosylated active human PAI-1 produced by CHO cells (human, UniProt P05121 24-402, N-glycosylated (CHO-produced)); test: IgG competition ELISA (DELFIA) against biotinylated human PAI-1, one-site binding analysis; column Human glycosylated
T4 construct: also called hu glyco; human glycosylated PAI-1

[5] = target: PAI-2 (UniProt P05120 1-415, limits assumed); test: competition ELISA (DELFIA): PICK167_A01 IgG1 coated on the plate, biotinylated human PAI-1, titration of the unlabelled test antigen
[6] = target: T5, PAI-3 (UniProt P05154 26-406, limits assumed); test: as above
T5 sequence (looked up): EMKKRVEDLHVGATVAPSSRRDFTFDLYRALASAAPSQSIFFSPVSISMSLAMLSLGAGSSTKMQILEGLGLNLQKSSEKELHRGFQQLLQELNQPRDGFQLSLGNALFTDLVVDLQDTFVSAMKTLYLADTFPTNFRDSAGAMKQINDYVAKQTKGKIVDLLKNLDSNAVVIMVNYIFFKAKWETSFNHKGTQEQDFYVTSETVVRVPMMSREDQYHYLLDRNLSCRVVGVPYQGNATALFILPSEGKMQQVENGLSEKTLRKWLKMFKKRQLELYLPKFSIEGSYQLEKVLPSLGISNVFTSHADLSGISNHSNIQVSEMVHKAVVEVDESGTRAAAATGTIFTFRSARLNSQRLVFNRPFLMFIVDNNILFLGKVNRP

[7] = target: antithrombin III (UniProt P01008 33-464); test: as above
[8] = target: T6, α1-antitrypsin (UniProt P01009 25-418); test: as above
T6 construct: also called alpha-1-antitrypsin

[9] = target: T7, α1-antichymotrypsin (UniProt P01011 24-423); test: as above
T7 sequence (looked up): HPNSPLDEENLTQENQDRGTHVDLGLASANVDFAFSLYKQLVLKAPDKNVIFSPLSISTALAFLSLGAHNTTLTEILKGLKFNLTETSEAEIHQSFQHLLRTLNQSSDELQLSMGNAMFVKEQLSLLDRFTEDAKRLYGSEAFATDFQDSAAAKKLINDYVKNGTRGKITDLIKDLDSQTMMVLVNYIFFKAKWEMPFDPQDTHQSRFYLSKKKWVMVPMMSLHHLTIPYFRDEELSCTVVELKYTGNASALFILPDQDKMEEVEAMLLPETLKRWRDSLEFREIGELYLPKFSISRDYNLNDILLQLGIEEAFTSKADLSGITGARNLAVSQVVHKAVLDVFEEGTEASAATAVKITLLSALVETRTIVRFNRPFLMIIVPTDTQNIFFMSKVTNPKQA

[10] = target: T8, α2-antiplasmin (UniProt P08697 40-491, limits assumed); test: as above
T8 sequence (looked up): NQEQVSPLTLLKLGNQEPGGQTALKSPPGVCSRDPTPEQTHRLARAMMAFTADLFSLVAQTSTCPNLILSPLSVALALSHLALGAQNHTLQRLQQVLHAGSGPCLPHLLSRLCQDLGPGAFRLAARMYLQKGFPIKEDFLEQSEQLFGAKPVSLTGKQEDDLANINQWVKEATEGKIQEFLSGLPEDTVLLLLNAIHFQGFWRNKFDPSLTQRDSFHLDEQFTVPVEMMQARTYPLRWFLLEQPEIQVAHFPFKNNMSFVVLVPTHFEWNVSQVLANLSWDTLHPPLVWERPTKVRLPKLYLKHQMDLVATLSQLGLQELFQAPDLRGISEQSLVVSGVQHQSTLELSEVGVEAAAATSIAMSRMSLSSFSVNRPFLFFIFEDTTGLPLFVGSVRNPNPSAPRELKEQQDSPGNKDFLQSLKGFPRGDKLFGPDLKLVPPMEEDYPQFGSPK

B1: PICK167_A01 IgG1 (antibody, V domains shown)
VH: QVQLQQSGAEVKKPGSSVKVSCKASGGTFSSYAISWVRQAPGQRLEWMGGIIPTFGTANYAQKFQGRVTITADESTSTAYMELSGLRSEDTAVYYCARERRQWLEGHFDYWGRGTPVTVSS
VL: DIQMTQSPSFLSASIGDRVTITCRASEGIYHNLAWYQQKPGKAPKLLIYKASSLASGAPSRFSGSRSGTDFTLTISSLQPDDFATYYCQQYSNYPLTFGGGTKLEIKR
fold loss of binding affinity against wild-type active PAI-1 [1]: 10 fold | fold difference in observed binding KD compared to human wild-type active [2]: 2.7 fold | fold difference in observed binding KD compared to human wild-type active [3]: 9.7 fold | fold difference in observed binding KD compared to human wild-type active [4]: 1.2 fold | binding result [5]: no binding (tested: log M about -6.3 (about 5e-7 M)) | binding result [6]: no binding (tested: log M about -6.3 (about 5e-7 M)) | binding result [7]: no binding (tested: log M about -6.3 (about 5e-7 M)) | binding result [8]: no binding (tested: log M about -6.3 (about 5e-7 M)) | binding result [9]: no binding (tested: log M about -6.3 (about 5e-7 M)) | binding result [10]: no binding (tested: log M about -6.3 (about 5e-7 M))
